These results are taken from PMC7041794, “Investigating the ferric ion binding site of magnetite biomineralisation protein Mms6” (PLoS ONE, 2020).

Substitutions are numbered along the chain they refer to.

B1: SUMO-Mms6 (natural protein, Magnetospirillum magneticum AMB-1)
chain: GGTIWTGKGLGLGLGLGLGAWGPIILGVVGAGAVYAYMKSRDIESAQSDEEVELRDALA
notes: Mms6, Magnetospirillum magneticum AMB-1, mature form (59 residues), the C-terminal stretch of the printed SUMO-Mms6 construct; numbers count on: the mature protein (truncated form isolated by Arakaki et al.); No cleavage of the tags is described; also called wildtype SUMO-Mms6; Mms6 (His6-SUMO fusion); source: E. coli BL21 (DE3) Star, purified (nickel column, dialysis against EDTA and …)
B2: SUMO-Mms6 R55A (natural protein, Magnetospirillum magneticum AMB-1)
chain: B1 chain with R55A
notes: Mms6, Magnetospirillum magneticum AMB-1, mature form; numbers count on: the mature protein; Same tags and construct as m1; source: E. coli BL21 (DE3) Star, purified (nickel column, dialysis); not shown: His6, N-terminal, kept; SUMO (yeast), N-terminal, kept
B3: SUMO-Mms6 E51A (natural protein, Magnetospirillum magneticum AMB-1)
chain: B1 chain with E51A
notes: as for B2
B4: SUMO-Mms6 EE50AA (natural protein, Magnetospirillum magneticum AMB-1)
chain: B1 chain with E50A, E51A
notes: Mms6, Magnetospirillum magneticum AMB-1, mature form; numbers count on: the mature protein; Same tags and construct as m1; also called double mutant; source: E. coli BL21 (DE3) Star, purified (nickel column, dialysis); not shown: His6, N-terminal, kept; SUMO (yeast), N-terminal, kept
B5: SUMO-Mms6 E53A (natural protein, Magnetospirillum magneticum AMB-1)
chain: B1 chain with E53A
notes: as for B2
B6: SUMO-Mms6 E44A (natural protein, Magnetospirillum magneticum AMB-1)
chain: B1 chain with E44A
notes: as for B2
B7: SUMO-Mms6 D42A (natural protein, Magnetospirillum magneticum AMB-1)
chain: B1 chain with D42A
notes: Mms6, Magnetospirillum magneticum AMB-1, mature form; numbers count on: the mature protein; Same tags and construct as m1 (pET28SUMOmms6, site directed mutagenesis); source: E. coli BL21 (DE3) Star, purified (nickel column, dialysis); not shown: His6, N-terminal, kept; SUMO (yeast), N-terminal, kept
B8: SUMO-Mms6 D49A (natural protein, Magnetospirillum magneticum AMB-1)
chain: B1 chain with D49A
notes: as for B2
B9: SUMO-Mms6 E50A (natural protein, Magnetospirillum magneticum AMB-1)
chain: B1 chain with E50A
notes: as for B2

The first series deals with the molecule itself. As to the kind of experiment: SEC; gel filtration of purified SUMO-Mms6 on Superdex S200 10/300 in 20 mM Tris pH 7.4; molecular weights extrapolated from Gel Filtration Marker Kit standards.
As to B1, the “stoichiometry N” value is 2.

A further series deals with the molecule itself. As to the kind of experiment: SDS-PAGE; purified proteins on Bio-Rad AnyKd gel, InstantBlue staining; apparent monomer and dimer bands.
Regarding B2, the binding result is “binds”.

With B3, the binding result is on record as “binds”.

Consider B4, for which the binding result is “binds”.

As for B5, the binding result was “binds”.

Take B6: the binding result is reported as “binds”.

With B7, the binding result is given as “binds”.

Take B8: the binding result is given as “binds”.

Regarding B9, the binding result is recorded as “binds”.
